Measured values: publication PMC5636944

Target: K63 diubiquitin (K63 diUb)
Assay: SPR, p62 immobilised on CM5 chip

KD (reference: recombinant p62 WT, unphosphorylated, sites S403,S407) | KD (reference: p62S403Pi (monophosphorylated), sites S407) | KD (reference: p62S407Pi (monophosphorylated), sites S403) | Substance
stronger; reference 167.9 ± 13.0 μM |  |  | p62/SQSTM1 (sequestosome-1) 320-436 (from UniProt Q13501) semisynthetic p62 2Pi (pS403/pS407)
 | stronger; reference 4.4 ± 0.4 μM | stronger; reference 14.8 ± 1.0 μM | p62/SQSTM1 (sequestosome-1) 320-436 (from UniProt Q13501) p62 2Pi (pS403/pS407)
